Experimental data reported in patent US20250179208A1 (ZONHON BIOPHARMA INSTITUTE, published 2025).
Where two headings read alike, the source gives them in different places.

T1: CD3 protein
T1 chain 1: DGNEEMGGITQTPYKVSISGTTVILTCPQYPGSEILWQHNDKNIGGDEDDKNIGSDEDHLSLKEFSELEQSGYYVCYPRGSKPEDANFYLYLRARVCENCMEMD
T1 chain 2: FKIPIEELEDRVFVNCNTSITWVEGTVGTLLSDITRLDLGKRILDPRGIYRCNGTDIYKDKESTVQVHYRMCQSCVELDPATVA

B1: No. 212 mouse antibody (antibody, V domains shown)
VH: EVQLQEAGPSLVKPSQTLSLTCFVTGDSITSGYWHWIRKFPGNKLEYMGYINYSGYTYYNPSLKSRFSITRDTSKNQYYLQLNSVTTEDTATYYCTSERNWGAFAYWGQGTLITVSS
VL: ENVLTQSPAIMSASPGEKVTMTCRASSSVISTYLHWYQQKSGASPKLWIYSTSNLASGVPARFSGSGSGTSYSLTISSVEAEDAATYYCQQFSGYPYTFGGGTKLEIK
B2: 19G294 (anti-CD26-CD3 humanized bispecific antibody derived from No. 62 mouse antibody) (bispecific antibody)
chain: DIVMTQSPSSLSVTPGERVSISCRSDKSLLHSNGNTYLYWFLQKPGQSPQVLIYRMSNLASGVPDRFSGSGSGTDFTLTISRVEAEDVGVYYCFQQLEYPYTFGQGTKLEIKGGGGSGGGGSGGGGSEVQLVQSGAELVKPGASVKLSCAASGFNIKDTYIYWVRQAPGQGLEWVGRIEPMNGNTKYDPKFQGRFTMTANTSKNTAYLQLSSLRSEDTAVYYCSRGGWLLLYVMDYWGQGTLVTVSSGGGGSDVQLVQSGAEVKKPGASVKVSCKASGYTFTRYTMHWVRQAPGQGLEWIGYINPSRGYTNYADSVKGRFTITTDKSTSTAYMELSSLRSEDTATYYCARYYDDHYCLDYWGQGTTVTVSSGGGGSGGGGSGGGGSDIVLTQSPATLSLSPGERATLSCRASQSVSYMNWYQQKPGKAPKRWIYDTSKVASGVPARFSGSGSGTDYSLTINSLEAEDAATYYCQQWSSNPLTFGGGTKVEIK
notes: also called 19G294 BiTE
B3: YS110 (humanized anti-CD26 full-length IgG antibody) (antibody, V domains shown)
VH: EVQLVESGAGVKQPGGTLRLTCTASGFSLTTYGVHWVRQAPGKGLEWVGVIWGDGRTDYDAAFMSRVTISKDTSKSTVYLQMNSLRAEDTAVYYCMRNRHDWFDYWGQGTTVTVSS
VL: DILLTQSPSSLSATPGERATITCRASQGIRNNLNWYQQKPGQAPRLLIYYSSNLQSGVPSRFSGSGSGTDFTLTISRLQPEDVAAYYCQQSIKLPFTFGSGTKVEIK
B4: 17G105 (anti-CD26-CD3 chimeric bispecific antibody derived from No. 72 mouse antibody) (bispecific antibody)
chain: DIVLTQSPASLAVSLGQRATISCRASESVEYYGTSLMQWYQQKPGQPPKLLIYTASNVESGVPVRFSGSGSGTDFSLNIHPVEEDDIAMYFCQQSRKVPYTFGGGTKLEIKGGGGSGGGGSGGGGSQVQLQQSGPELMKPGASVKISCKATGYSFSGFWIEWVKQRPGHGLEWIGEILPGSGASNYHENFKGRATITADTSANTAYMQLRSLTSEDSAVYYCARERYYGSKYFDVWGAGTTVTVSSGGGGSDVQLVQSGAEVKKPGASVKVSCKASGYTFTRYTMHWVRQAPGQGLEWIGYINPSRGYTNYADSVKGRFTITTDKSTSTAYMELSSLRSEDTATYYCARYYDDHYCLDYWGQGTTVTVSSGGGGSGGGGSGGGGSDIVLTQSPATLSLSPGERATLSCRASQSVSYMNWYQQKPGKAPKRWIYDTSKVASGVPARFSGSGSGTDYSLTINSLEAEDAATYYCQQWSSNPLTFGGGTKVEIK
notes: also called chimeric BiTE
B5: No. 62 mouse antibody (antibody, V domains shown)
VH: EVQLQQSGAELVKPGASVKLSCTASGFNIKDTYIYWVKQRPGQGLEWIGRIEPMNGNTKYDPKFQGKATMTANTSSNTAYLHLSSLASEDTAVYFCSRGGWLLLYVMDYWGQGTSVTVSS
VL: DIVMTQAAPSVSVTPGESVSISCRSDKSLLHSNGNTYLYWFLQRPGQSPQVLIYRMSNLASGVPDRFSGSGSGTGFTLRVSRVEAEDVGVYYCFQQLEYPYTFGGGTKLEIKR
B6: 21G587 (19G294 anti-CD26 scFv joined to the WBP3311_2.306.4 anti-CD3 scFv) (bispecific antibody)
chain: EVQLVQSGAELVKPGASVKLSCAASGFNIKDTYIYWVRQAPGQGLEWVGRIEPMNGNTKYDPKFQGRFTMTANTSKNTAYLQLSSLRSEDTAVYYCSRGGWLLLYVMDYWGQGTLVTVSSGGGGSGGGGSGGGGSDIVMTQSPSSLSVTPGERVSISCRSDKSLLHSNGNTYLYWFLQKPGQSPQVLIYRMSNLASGVPDRFSGSGSGTDFTLTISRVEAEDVGVYYCFQQLEYPYTFGQGTKLEIKGGGGSQVQLVQSGAEVKKPGSSVKVSCKASGFAFTDYYIHWVRQAPGQGLEWMGWISPGNVNTKYNENFKGRVTITADKSTSTAYMELSSLRSEDTAVYYCARDGYSLYYFDYWGQGTLVTVSSGGGGSGGGGSGGGGSDIVMTQSPDSLAVSLGERATINCKSSQSLLNSRTRKNYLAWYQQKPGQPPKLLIYWASTRQSGVPDRFSGSGSGTDFTLTISSLQAEDVAVYYCTQSHTLRTFGGGTKVEIK

Legend:
[1] = target: T2, CD26 on CD26 positive human tumor cells (human, UniProt P27487 1-766); assay: cell-based or functional assay
[2] = target: T2, CD26 on CD26 positive human tumor cells; assay: cell-based or functional assay; remark: listed apart in the source
[3] = target: T2, CD26 on CD26 positive human tumor cells; assay: cell-based or functional assay; remark: listed apart in the source
[4] = target: T2, CD26 on CD26 positive human tumor cells; assay: cell-based or functional assay; remark: listed apart in the source
CD3 protein [5] = target: T1, CD3 protein; assay: BLI (Octet), biotinylated CD3 on SA sensor, antibody 200-1600 nM
Experimental: CD3 protein was biotinylated with EZ-link NHS-PEG12-Biotin. Biotinylated CD3 protein was immobilized to SA biosensor. Equilibrated in 1×Kinetics solution. The CD3 immobilized to SA biosensor was combined with the humanized bispecific antibody solution to be detected. The concentration gradient of humanized bispecific antibody was 200 nM, 400 nM, 800 nM, and 1600 nM. The biosensor was dissociated in 1×Kinetics solution. Fortebio Data Analysis 8.0 software was used for data analysis and affinity constant values were calculated.

[6] = target: T3, CD26 protein (recombinant human CD26) (human, UniProt P27487 29-766, limits assumed); assay: BLI (Octet), biotinylated CD26 on SA sensor, antibody 31.3-500 nM
T3 construct: Amine-coupled, biotinylated or HRP-labeled according to the assay; also called DPP4; rCD26
Experimental: CD26 protein was biotinylated with EZ-link NHS-PEG12-Biotin. Biotinylated CD26 protein was immobilized to SA biosensor. Equilibrated in 1×Kinetics solution. The CD26 immobilized to SA biosensor was combined with the antibody solution to be detected. The concentration gradients of the antibody solution were 31.3 nM, 62.5 nM, 125 nM, 250 nM, and 500 nM. The biosensor was dissociated in 1×Kinetics solution. Fortebio Data Analysis 8.0 software was used for data analysis and affinity constant values were calculated.

CD3 protein [7] = target: T1, CD3 protein; assay: BLI (Octet QKe), CD3 amine-coupled on AR2G sensor, antibody at 181.8 nM
Experimental: The affinity of chimeric antibodies to antigen protein CD3 was determined by Fortebio Intermolecular Interaction Octet QKe instrument. First, the amino-coupled biosensor AR2G was activated with EDC/s-NHS, and the activated biosensor AR2G was solidified in CD3 protein solution diluted with 10 mM sodium acetate (pH 5.0) solution. The biosensor solidified with CD3 was quenched in 1M ethanolamine (pH8.5) solution. Then equilibrated in 1× kinetic solution. After equilibration, it was bound to bispecific antibody solution. They were dissociated in 1×kinetic solution. Fortebio Data Analysis 8.0 software was used to analyze the data and calculate the affinity constant value (KD).

[8] = target: T3, CD26 protein (recombinant human CD26); assay: BLI (Octet QKe), CD26 amine-coupled on AR2G sensor, antibody at 181.8 nM
Experimental: The affinity of the chimeric antibody to the antigen protein CD26 was detected by Fortebio Intermolecular Interaction Octet QKe instrument. First, the amino-coupled biosensor AR2G was activated with EDC/s-NHS, and the activated biosensor AR2G was solidified in CD26 protein solution diluted with 10 mM sodium acetate (pH 5.0) solution. The biosensor solidified with CD26 was quenched in 1M ethanolamine (pH8.5) solution. Then equilibrated in 1× kinetic solution. After equilibration, it was bound to a humanized bispecific antibody solution. It was dissociated in 1× kinetic solution. Fortebio Data Analysis 8.0 software was used to analyze the data and calculate the affinity constant (KD), association rate constant (kon) and dissociation rate constant (kdis). The Response value represents the number of antibody molecules that can bind to the antigen. Kon indicates the binding speed of the antibody to the corresponding receptor. Kdis represents the dissociation speed of antibody from corresponding receptor. NA indicates no valid data.

Binder | cell lysis rate, antibody mediated PBMC cytotoxic effect on 786-0 cells (100 ng/ml, 5 h) [1] [%] | EC50 of antibody mediated cytotoxicity of PBMC against 786-0-LUC cells (luciferase reporter) [2] [ng/mL] | EC50 of antibody mediated cytotoxicity of PBMC against A498-LUC cells (luciferase reporter) [2] [ng/mL] | IC50 of antibody mediated PBMC cytotoxicity against 786-0 cells [4] [ng/mL] | IC50 of antibody mediated PBMC cytotoxicity against NCI-H226 cells [4] [ng/mL] | IC50 of antibody mediated PBMC cytotoxicity against OS-RC-2 cells [4] [ng/mL] | IC50 of antibody mediated PBMC cytotoxicity against PC-3 cells [4] [ng/mL] | Kd (CD3 protein [5]) [nM] | koff (CD3 protein [5]) [s⁻¹] | kon (CD3 protein [5]) [M⁻¹ s⁻¹] | Kd [6] [nM] | koff [6] [s⁻¹] | kon [6] [M⁻¹ s⁻¹] | also measured
B1 | 11.3 | – | – | – | – | – | – | – | – | – | – | – | – | –
B2 | – | 1.43 | 4.15 | 0.26 | 0.752 | 0.545 | 0.22 | 0.751 | 0.000178 | 238000 | 0.914 | 8.45e-05 | 92400 | EC50 of antibody mediated cytotoxicity of PBMC against 786-0-LUC cells (luciferase reporter) [3]: 2.62 ng/mL; EC50 of antibody mediated cytotoxicity of PBMC against A498-LUC cells (luciferase reporter) [3]: 3.21 ng/mL; IC50 of antibody mediated PBMC cytotoxicity against HCC 827 cells [4]: 0.546 ng/mL; IC50 of antibody mediated PBMC cytotoxicity against NCI-H2052 cells [4]: 5.05 ng/mL
B3 | 56.6 | – | – | > 100 | > 100 | > 100 | > 100 | – | – | – | – | – | – | –
B4 | – | – | – | – | – | – | – | – | – | – | – | – | – | Kd (CD3 protein [7]): 2.18 nM; koff (CD3 protein [7]): 0.000672 s⁻¹; kon (CD3 protein [7]): 309000 M⁻¹ s⁻¹; Kd [8]: 39.3 nM; Response [8]: 0.498; koff [8]: 0.00126 s⁻¹; kon [8]: 32000 M⁻¹ s⁻¹
B5 | 53.1 | – | – | – | – | – | – | – | – | – | – | – | – | –
B6 | – | 2.49 | 5.4 | – | – | – | – | 0.683 | 8.71e-05 | 128000 | 0.352 | 4.01e-05 | 114000 | –
